Patent US20210292414A1 (H LUNDBECK A S, published 2021)
Like-named read-outs stand apart in the source and are kept apart here.

T1: hBack
T1 chimeric human/tetraodon Sortilin extracellular region, BAP tag: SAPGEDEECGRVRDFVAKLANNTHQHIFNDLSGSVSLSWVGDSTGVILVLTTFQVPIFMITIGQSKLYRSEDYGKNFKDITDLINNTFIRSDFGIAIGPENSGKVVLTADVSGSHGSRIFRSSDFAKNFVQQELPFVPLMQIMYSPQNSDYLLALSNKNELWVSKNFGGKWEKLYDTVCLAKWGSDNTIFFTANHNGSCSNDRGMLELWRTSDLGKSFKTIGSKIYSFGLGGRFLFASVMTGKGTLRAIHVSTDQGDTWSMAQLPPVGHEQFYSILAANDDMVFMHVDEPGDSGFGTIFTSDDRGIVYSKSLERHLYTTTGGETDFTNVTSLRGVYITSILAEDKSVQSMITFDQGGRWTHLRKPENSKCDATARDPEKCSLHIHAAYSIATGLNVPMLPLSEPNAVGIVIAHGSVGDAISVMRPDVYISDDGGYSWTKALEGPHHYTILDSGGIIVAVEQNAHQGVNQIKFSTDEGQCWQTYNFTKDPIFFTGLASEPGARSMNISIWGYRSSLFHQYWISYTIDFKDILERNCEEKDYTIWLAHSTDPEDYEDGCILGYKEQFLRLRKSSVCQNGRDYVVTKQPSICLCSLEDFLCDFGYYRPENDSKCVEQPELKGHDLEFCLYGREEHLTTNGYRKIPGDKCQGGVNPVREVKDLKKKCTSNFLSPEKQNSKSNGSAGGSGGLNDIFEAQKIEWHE

T2: Sortilin SORTECDBAP_hB01-05 (human/tetraodon chimera)
T2 construct: Shuffle construct: chimeric human/tetraodon Sortilin ECD with BAP tag
T2 chain: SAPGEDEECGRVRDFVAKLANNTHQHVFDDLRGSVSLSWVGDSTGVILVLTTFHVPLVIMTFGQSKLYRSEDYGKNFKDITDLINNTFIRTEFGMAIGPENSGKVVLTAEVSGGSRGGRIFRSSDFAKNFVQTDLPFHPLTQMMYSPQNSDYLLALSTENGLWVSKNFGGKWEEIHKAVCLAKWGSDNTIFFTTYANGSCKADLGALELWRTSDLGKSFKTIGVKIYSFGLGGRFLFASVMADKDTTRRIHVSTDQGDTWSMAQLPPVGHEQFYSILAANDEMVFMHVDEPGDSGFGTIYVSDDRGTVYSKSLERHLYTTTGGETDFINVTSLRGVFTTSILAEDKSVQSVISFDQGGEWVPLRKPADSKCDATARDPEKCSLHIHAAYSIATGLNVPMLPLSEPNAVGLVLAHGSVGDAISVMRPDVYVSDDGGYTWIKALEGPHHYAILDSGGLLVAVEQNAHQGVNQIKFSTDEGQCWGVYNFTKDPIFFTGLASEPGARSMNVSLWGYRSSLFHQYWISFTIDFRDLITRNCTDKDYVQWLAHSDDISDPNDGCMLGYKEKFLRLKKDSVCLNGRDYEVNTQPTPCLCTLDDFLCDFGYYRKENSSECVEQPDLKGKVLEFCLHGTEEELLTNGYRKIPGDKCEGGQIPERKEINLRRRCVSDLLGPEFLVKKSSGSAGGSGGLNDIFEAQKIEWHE

T3: Sortilin SORTECDBAP_tetra (tetraodon)
T3 construct: Fully tetraodon Sortilin ECD with BAP tag; also called tetraodon; tetraodon Sortilin
T3 chain: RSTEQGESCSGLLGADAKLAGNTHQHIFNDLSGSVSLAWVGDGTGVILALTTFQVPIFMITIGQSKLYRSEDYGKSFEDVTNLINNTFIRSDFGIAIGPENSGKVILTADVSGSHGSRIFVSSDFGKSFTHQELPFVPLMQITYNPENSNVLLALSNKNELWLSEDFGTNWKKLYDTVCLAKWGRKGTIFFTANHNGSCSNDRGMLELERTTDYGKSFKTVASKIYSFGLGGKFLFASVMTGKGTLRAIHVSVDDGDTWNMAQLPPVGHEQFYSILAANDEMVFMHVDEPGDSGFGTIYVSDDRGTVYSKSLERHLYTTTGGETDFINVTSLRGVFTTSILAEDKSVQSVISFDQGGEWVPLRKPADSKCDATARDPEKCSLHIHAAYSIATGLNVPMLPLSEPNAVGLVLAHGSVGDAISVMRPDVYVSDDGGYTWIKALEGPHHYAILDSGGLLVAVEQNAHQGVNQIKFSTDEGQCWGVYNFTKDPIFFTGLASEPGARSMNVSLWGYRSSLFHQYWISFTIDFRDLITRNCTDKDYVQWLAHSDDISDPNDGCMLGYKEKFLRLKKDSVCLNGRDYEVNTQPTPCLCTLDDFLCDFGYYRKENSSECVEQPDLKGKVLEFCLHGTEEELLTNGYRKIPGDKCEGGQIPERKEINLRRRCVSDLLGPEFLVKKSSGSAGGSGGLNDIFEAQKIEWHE

T4: Sortilin SORTECDBAP_hB06-10 (human/tetraodon chimera)
T4 construct: Shuffle construct: chimeric human/tetraodon Sortilin ECD with BAP tag
T4 chain: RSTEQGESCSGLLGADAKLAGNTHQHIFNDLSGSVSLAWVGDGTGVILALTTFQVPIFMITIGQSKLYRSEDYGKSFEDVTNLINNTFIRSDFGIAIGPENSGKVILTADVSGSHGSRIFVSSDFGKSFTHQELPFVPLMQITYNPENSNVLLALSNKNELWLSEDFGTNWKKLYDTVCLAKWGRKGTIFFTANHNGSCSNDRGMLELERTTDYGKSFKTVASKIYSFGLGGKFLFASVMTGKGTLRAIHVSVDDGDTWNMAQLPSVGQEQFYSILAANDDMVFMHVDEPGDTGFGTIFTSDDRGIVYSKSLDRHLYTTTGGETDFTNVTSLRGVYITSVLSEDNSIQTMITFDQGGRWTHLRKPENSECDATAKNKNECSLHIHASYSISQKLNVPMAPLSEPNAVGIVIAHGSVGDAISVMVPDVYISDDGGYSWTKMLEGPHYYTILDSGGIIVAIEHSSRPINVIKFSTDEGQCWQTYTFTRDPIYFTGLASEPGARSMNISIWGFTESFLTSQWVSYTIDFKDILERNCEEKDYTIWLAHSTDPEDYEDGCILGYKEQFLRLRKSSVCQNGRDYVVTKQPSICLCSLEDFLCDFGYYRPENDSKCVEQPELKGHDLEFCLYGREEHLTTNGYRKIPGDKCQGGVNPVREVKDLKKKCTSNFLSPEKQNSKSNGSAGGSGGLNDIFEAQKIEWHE


Tests used:
Assay in all cases: BLI (Octet384RED)
hBack = molecular target: T1, hBack
[1] = molecular target: T2, Sortilin SORTECDBAP_hB01-05
[2] = molecular target: T3, Sortilin SORTECDBAP_tetra
[3] = molecular target: T4, Sortilin SORTECDBAP_hB06-10
[4] = molecular target: T3, Sortilin SORTECDBAP_tetra

Binder | EC50 (hBack) [ng/mL] | binding result [1] | binding result [2] | EC50 [3] [ng/mL] | binding result [4]
Antibody 6003-799 (antibody, human IgG1, V domains shown) VH: QVQLVESGGGVVQPGRSLRLSCAASGFTFSSYGMHWVRQAPGKGLEWVTVISYDGSNKYYADSVKGRFTISRDNSKNTLYLQMNSLRAEDTAVYYCAKLTGDAFDIWGQGTMVTVSS VL: EIVLTQSPATLSLSPGERATLSCRASQSVSSYLVWYQQKPGQAPRLLIYHASNRATGIPARFSGSGSGTDFTLTISSLEPEDFAVYYCQQRSNWPRITFGQGTRLEIK | 3.2 | no binding | no binding | 2.63 | 
Antibody 6003-822 (antibody, human IgG1, V domains shown) VH: EVQLLESGGGLVQPGESLTLSCAASGFTLSSYAMSWVRQAPGKGLEWVSSISGRLGTTYYAASVKGRFTISRDNSKNTLYLQMNSLRAEDTAIYSCAKAPSDAFDIWGQGTMVTVSS VL: EIVLTQSPATLSLSPGERATLSCRASQSVSSYLAWYQQKPGQAPRLLIYDASNRATGIPARFSGSGSGTDFTLTISSLEPEDFAVYYCQQRSNWPIFTFGPGTKVDIK | 2.59 | no binding | no binding | 1.49 | 
Antibody 6003-886 (antibody, human IgG1, V domains shown) VH: QVQLVQSGAEVKKPGASVKVSCKASGYTFTKYGISWVRQAPGQGLEWMGWISAYNGNTNYAQKLQDRVTMTTDTFTSTAYMELRSLRSDDTAVYFCARDGPLTGDFTFYGMDVWGQGTTVTVSS VL: EIVLTQSPATLSLSPGERATLSCRASQSVSSYLAWYQQKPGQAPRLLIYDASNRATGIPARFSGSGSGTDFTLTISSLEPEDFAVYYCQQRSNWPPFTFGPGTKVDIK | 2.72 | no binding | no binding | 2.44 | 
Antibody 6003-900 (antibody, human IgG1, V domains shown, also called antibody 900; Sortilin human antibody 900) VH: EVQLVESGGGLVKPGGSLRLSCAASGFTFSSYSMNWVRQAPGKGLEWVSSISSSSSYIYYADSVKGRFTISRDNAKNSLYLQMNSLRAEDTAVYYCARRGSGSYDAFDIWGQGTMVTVSS VL: EIVLTQSPDFQSVTPKEKVTITCRASQSIGYSLHWYQQKPDQSPKLLIKYASQSFSGVPSRFSGSGSGTDFTLTINSLEAEDAAAYYCHQSSSLPLTFGGGTKVEIK | 1.16 | no binding | no binding | 0.91 | 
Antibody 6003-030 (antibody, human IgG1, V domains shown, Human antibody (HuMab); also called antibody 30; mAb30) VH: EVQVLESGGGLVQPGGSLRLSCAASGFTFSSYAMSWVRQAPGKGLEWVSTISGRGGNTYYADSVKGRFTISRDNSKNTLYLQMDSLRAEDTAVYYCAIIPSLYWYFDLWGRGTLVTVSS VL: EIVLTQSPATLSLSPGERATLSCRASQSVSSYLAWYQQKPGQAPRLLIYDASNRATGIPARFSGSGSGTDFTLTISSLEPEDFAVYYCQQRSNWPLTFGGGTKVEIK |  |  |  |  | no binding
Antibody 6003-028 (antibody, human IgG1, V domains shown) VH: EVQLLESGGGLVQPGGSLRLSCAASGFTFSSYAMSWVRQAPGKGLEWVSTISGRGGSTYYADSVKGRFTISRDNSKNTLYLQMNSLRAEDTAVYYCANLYSNYWYFDLWGRGTLVTVSS VL: EIVLTQSPATLSLSPGERATLSCRASQSVSSFLAWYQQKPGQAPRLLIYDASNRATGIPARFSGSGSGTDFTLTISSLEPEDFAVYYCQQRSNWPLTFGGGTKVEIK |  |  |  |  | no binding
Antibody 6003-056 (antibody, human IgG1, V domains shown) VH: EVQVLESGGGLVQPGGSLRLSCVASGFTFSSYAMHWVRQAPGKGLEWVSAISGRGGSTYYADSVKGRFTISRDNSKNTLYLQMNSLRAEDTAVYYCAIIPSLYWYFDLWGRGTLVTVSS VL: EIVLTQSPATLSLSPGERATLSCRASQSVSSFLAWYQQKPGQAPRLLIYDASNRATGIPARFSGSGSGTDFTLTISSLEPEDFAVYYCQQRSNWPLTFGGGTKVEIK |  |  |  |  | no binding
Antibody 6003-083 (antibody, human IgG1, V domains shown) VH: EVQLLESGGGLVQPGGSLRLSCAASGFTFSSYAMSWVRQAPGKGLEWVSTISGRGGSTYYADSVKGRFTISRDNSKNTLYLQMNSLRAEDTAVYYCAIVATMYWYFDLWGRGTLVTVSS VL: EIVLTQSPATLSLSPGERATLSCRASQSVSSYLAWYQQKPGQAPRLLIYDASNRATGIPARFSGSGSGTDFTLTISSLEPEDFAVYYCQQRSNWPITFGQGTRLEIK |  |  |  |  | no binding
Antibody 6003-1286 (antibody, human IgG1, V domains shown) VH: EVQLLESGGGLVQPGGSLRLSCAASGFTFSSYAMSWVRQAPGKGLEWVSTISGRGGNTYYADSVKGRFTISRDNSKNTLYLQMNSLRAEDAAVYYCANIYSHYWYFDLWGRGTLVTVSS VL: EIVLTQSPATLSLSPGERATLSCRASQSVNSYLAWYQQKPGQAPRLLIYDASNRATGIPARFSGSGSGTDFTLTISSLEPEDFAVYYCQQRSNWPLTFGGGTKVEIK |  |  |  |  | no binding
Antibody 6003-1277 (antibody, V domains shown) VH: QVQLVQSGAEVKKPGASVKVSCKTSGYTFTHYGISWVRQAPGQGLEWMGWINTYNGNTKYAQKLQGRVTMTTDTSTSTAYMELRSLRSDDTAVYYCASLGRNFDYWGQGTLVTVSS VL: not shown |  |  |  |  | no binding
Antibody 6003-381 (antibody, human IgG1, V domains shown) VH: QVQLVESGGGVVQPGRSLRLSCAASGFTFSNYVMHWVRQAPGKGLEWVAAISYNGNNKYYADSVKGRFTISRDNSKNTLYLQMNSLRAEDTAVSYCAKGLNDAFDIWGQGTMVTVSS VL: not shown |  |  |  |  | no binding
IgG1-6003-408 (antibody, V domains shown, also called Antibody 6003-408) VH: EVQLVESGGGLVKPGGSLRLSCAASGFTFSSYSMNWVRQAPGKGLEWVSSISSSSSYIYYADSVKGRFTISRDNAKNSLYLQMNSLRAEDTAVYYCARRRIAAAGTGYGAFDIWGQGTMVTVSS VL: ARQLTQSPSSLSASVGDRVTITCRASQGITSALAWYQQKPGKVPKLLIYDASSLESGVPSRFSGSGSGTDFTLTISSLQPEDFATYYCQQFNGYPMFSFGQGTKLEII |  |  |  |  | no binding
